Experimental data published in patent US20110059889A1 (SYNTONIX PHARMACEUTICALS, published 2011).
Read-outs that look alike come from different tables or passages of the source. Blank lines part the entries; values can stand above or below the binder they belong to. Numbered stars: 1 amine (or outer) side, 2 acyl side, 3 side chain; on linkers, the order of the positions; unused ones are H or OH. Bridge positions count the residues as written; N and C are the ends. Square brackets hold non-standard residues; d marks the D form. Ends that are not written are not given here. X4 = (3S)‑3‑amino‑2‑oxo‑1‑piperidine‑acetic acid, O=C1[C@@H](N[*:1])CCCN1CC(=O)[*:2]; 5,5‑bicyclic dipeptide mimic = not defined here; Tyr(Me) = COc1ccc(C[C@H](N[*:1])C(=O)[*:2])cc1; Phe(3-Cl) = N[C@@H](Cc1cccc(Cl)c1)C(=O)O; Dip = N[C@H](C(=O)O)C(c1ccccc1)c1ccccc1; Phe(2-Cl) = N[C@@H](Cc1ccccc1Cl)C(=O)O; His(1-Me) = 1-methylhistidine; NMeL = CN[C@@H](CC(C)C)C(=O)O; Pen = CC(C)(S)[C@H](N)C(=O)O; hCys = N[C@@H](CCS)C(=O)O; Sar = CNCC(=O)O

Assays:
[1] = target: T1, soluble human FcRn (shFcRn) (human, UniProt P55899 24-297; P61769 21-119); test: SPR pH 7.4
T1 construct: Biotinylated for the ELISA, amine-coupled to a CM5 chip for SPR; also called biotinylated shFcRn
Experimental: (§1) The following steps were performed to cross-link soluble human or cynomolgus FcRn to the dextran surface of a CM5 sensor chip (Biacore AB, Uppsala, Sweden) by an amine coupling reaction involving 1-ethyl-(3-dimethylaminopropyl)-carbodiimide hydrochloride (EDC) (Biacore AB, Uppsala, Sweden) and N-hydroxysuccinimide (NHS) (Biacore AB, Uppsala, Sweden) as recommended by Biacore (BIAapplications Handbook, version AB, section 4.2, Biacore AB, Uppsala, Sweden). […] Residual sites on the FcRn flow cell were blocked with 1 M ethanolamine hydrochloride pH 8.5 (Biacore AB, Uppsala, Sweden). A control flow cell was blocked with ethanolamine for reference subtraction. For analysis of the monomeric peptides, FcRn was coated to a final density of 4000-5000 response units (RU). For analysis of the peptide dimers, FcRn was coated to a density of 2000-2500 RU. All SPR measurements were performed using a BIACORE 3000 Instrument (Biacore AB Uppsala, Sweden). For measurements done at either pH 6 or pH 7.4, experiments were performed in 50 mM phosphate, 100 mM sodium chloride, 0.01% surfactant P20 (Biacore AB, Uppsala, Sweden).
(§2) Ten, 2-fold dilutions of the peptide were injected over the FcRn-CM5 chip at a rate of 20 μl/min for 2 min. The peptide was dissociated from the chip for 2.5 minutes with buffer. Any remaining peptide was removed from the chip with a 30 second injection of HBS-P buffer (Biacore AB, Uppsala, Sweden) at a rate of 30 μl/min. Sensorgrams were generated and analyzed using BiaEval software version 3.1 (Biacore AB, Uppsala, Sweden). The equilibrium RU observed for each injection was plotted against concentration. The equilibrium KD values were derived by analysis of the plots using the steady state affinity model included in the BiaEval software.

[2] = target: T1, soluble human FcRn (shFcRn); test: IgG competition ELISA
Experimental: (§3) The wells were coated with 100 μl/well of 1 μg/ml biotinylated-shFcRn in Buffer A. The plate was sealed and incubated at 37° C. for 2 hours. Afterwards, the plate was washed with 200 μl/well of Buffer B (Buffer B: 100 mM MES pH 6, 150 mM NaCl, 0.5% BSA IgG-free (Jackson ImmunoResearch, West Grove, Pa.), 0.05% Tween-20). […] To allow for mixing, the plate was rocked for 2 minutes, sealed and incubated at 37° C. for 2 hours. […] The plate was covered, incubated for 30 minutes at room temperature and washed 4 times with 200 μl/well of ice-cold buffer B. SureBlue TMB substrate solution (100 μl/well, KPL, Gaithersburg, Md.) was added and the plate was allowed to incubate at room temperature until color developed, which took 5 to 10 minutes. Once color developed, 100 μl/well of TMB stop solution (KPL, Gaithersburg, Md.) was added and the absorbance was measured at 450 nm. The data was plotted as absorbance vs. peptide concentration to derive the inhibitory concentration 50% (IC₅₀) values.

[3] = target: T1, soluble human FcRn (shFcRn); test: IgG competition ELISA; remark: listed apart in the source
Experimental: as §3

[4] = target: T1, soluble human FcRn (shFcRn); test: IgG competition ELISA; remark: listed apart in the source
[5] = target: T1, soluble human FcRn (shFcRn); test: IgG competition ELISA; remark: listed apart in the source
Experimental: as §3

[6] = target: T1, soluble human FcRn (shFcRn); test: SPR pH 6
Experimental: as §1, §2

[7] = target: T1, soluble human FcRn (shFcRn); test: IgG competition ELISA; remark: listed apart in the source

Kd [1]: 1.1 µM | IC50 [2]: 1.4 µM
B1: Peptide No. 40 (peptide)
peptide: QRF[Pen]TGHFG[dP]LYPCNGP-NH2
modifications: disulfide 4-14; N-terminus assumed
SMILES: CC(C)C[C@@H]1NC(=O)[C@H]2CCCN2C(=O)CNC(=O)[C@H](Cc2ccccc2)NC(=O)[C@H](Cc2c[nH]cn2)NC(=O)CNC(=O)[C@H]([C@@H](C)O)NC(=O)[C@@H](NC(=O)[C@H](Cc2ccccc2)NC(=O)[C@H](CCCNC(=N)N)NC(=O)[C@@H](N)CCC(N)=O)C(C)(C)SSC[C@@H](C(=O)N[C@@H](CC(N)=O)C(=O)NCC(=O)N2CCC[C@H]2C(N)=O)NC(=O)[C@@H]2CCCN2C(=O)[C@H](Cc2ccc(O)cc2)NC1=O

Kd [1]: 41 µM | IC50 [2]: 18 µM
B2: Peptide No. 43 (peptide)
peptide: QRF[Pen]TGHFG[dI]LYPCNGP-NH2
modifications: disulfide 4-14; N-terminus assumed
SMILES: CC[C@@H](C)[C@H]1NC(=O)CNC(=O)[C@H](Cc2ccccc2)NC(=O)[C@H](Cc2c[nH]cn2)NC(=O)CNC(=O)[C@H]([C@@H](C)O)NC(=O)[C@@H](NC(=O)[C@H](Cc2ccccc2)NC(=O)[C@H](CCCNC(=N)N)NC(=O)[C@@H](N)CCC(N)=O)C(C)(C)SSC[C@@H](C(=O)N[C@@H](CC(N)=O)C(=O)NCC(=O)N2CCC[C@H]2C(N)=O)NC(=O)[C@@H]2CCCN2C(=O)[C@H](Cc2ccc(O)cc2)NC(=O)[C@H](CC(C)C)NC1=O

IC50 [3]: 0.62 µM
B3: Peptide No. 239 (peptide)
peptide: RFCTGHFXLYPC
modifications: not fully specified; Pen 3; X 8 = 3(S)-3-amino-2-oxo-1-azepine acetic acid in place of Gly-Gly; NMeLeu 9; disulfide 3-12; C-terminal amide

IC50 [4]: 100 µM
B4: Peptide No. 56 (peptide)
peptide: QRF[Pen]TGH[Tyr(Me)]GGLYPCNGP-NH2
modifications: disulfide 4-14; N-terminus assumed
SMILES: COc1ccc(C[C@@H]2NC(=O)[C@H](Cc3c[nH]cn3)NC(=O)CNC(=O)[C@H]([C@@H](C)O)NC(=O)[C@@H](NC(=O)[C@H](Cc3ccccc3)NC(=O)[C@H](CCCNC(=N)N)NC(=O)[C@@H](N)CCC(N)=O)C(C)(C)SSC[C@@H](C(=O)N[C@@H](CC(N)=O)C(=O)NCC(=O)N3CCC[C@H]3C(N)=O)NC(=O)[C@@H]3CCCN3C(=O)[C@H](Cc3ccc(O)cc3)NC(=O)[C@H](CC(C)C)NC(=O)CNC(=O)CNC2=O)cc1

IC50 [4]: 32 µM
B5: Peptide No. 224 (peptide)
peptide: RF[Pen]TGH[Dip]GGLYPC-NH2
modifications: disulfide 3-13; N-terminus assumed
SMILES: CC(C)C[C@@H]1NC(=O)CNC(=O)CNC(=O)[C@H](C(c2ccccc2)c2ccccc2)NC(=O)[C@H](Cc2c[nH]cn2)NC(=O)CNC(=O)[C@H]([C@@H](C)O)NC(=O)[C@@H](NC(=O)[C@H](Cc2ccccc2)NC(=O)[C@@H](N)CCCNC(=N)N)C(C)(C)SSC[C@@H](C(N)=O)NC(=O)[C@@H]2CCCN2C(=O)[C@H](Cc2ccc(O)cc2)NC1=O

IC50 [5]: 18 µM
B6: Peptide No. 33 (peptide)
peptide: QRFCTGHFGGLYP[Pen]NGP-NH2
modifications: disulfide 4-14; N-terminus assumed
SMILES: CC(C)C[C@@H]1NC(=O)CNC(=O)CNC(=O)[C@H](Cc2ccccc2)NC(=O)[C@H](Cc2c[nH]cn2)NC(=O)CNC(=O)[C@H]([C@@H](C)O)NC(=O)[C@@H](NC(=O)[C@H](Cc2ccccc2)NC(=O)[C@H](CCCNC(=N)N)NC(=O)[C@@H](N)CCC(N)=O)CSSC(C)(C)[C@@H](C(=O)N[C@@H](CC(N)=O)C(=O)NCC(=O)N2CCC[C@H]2C(N)=O)NC(=O)[C@@H]2CCCN2C(=O)[C@H](Cc2ccc(O)cc2)NC1=O

IC50 [3]: 23 µM
B7: Peptide No. 198 (peptide)
peptide: RF[Pen]TGHF[5,5‑bicyclic dipeptide mimic]LYPC-NH2
modifications: disulfide 3-12; reading uncertain
notes: isomer only in drawing CHEM-US-00084

IC50 [3]: 7.3 µM
B8: Peptide No. 193 (peptide)
peptide: RF[Pen]TGHF[X4]LYPC-NH2
modifications: disulfide 3-12; N-terminus assumed
SMILES: CC(C)C[C@@H]1NC(=O)CN2CCC[C@H](NC(=O)[C@H](Cc3ccccc3)NC(=O)[C@H](Cc3c[nH]cn3)NC(=O)CNC(=O)[C@H]([C@@H](C)O)NC(=O)[C@@H](NC(=O)[C@H](Cc3ccccc3)NC(=O)[C@@H](N)CCCNC(=N)N)C(C)(C)SSC[C@@H](C(N)=O)NC(=O)[C@@H]3CCCN3C(=O)[C@H](Cc3ccc(O)cc3)NC1=O)C2=O

IC50 [5]: 2 µM
B9: Peptide No. 69 (peptide)
peptide: QRF[Pen]TGHFGGLYP[hCys]NGP-NH2
modifications: disulfide 4-14; N-terminus assumed
SMILES: CC(C)C[C@@H]1NC(=O)CNC(=O)CNC(=O)[C@H](Cc2ccccc2)NC(=O)[C@H](Cc2c[nH]cn2)NC(=O)CNC(=O)[C@H]([C@@H](C)O)NC(=O)[C@@H](NC(=O)[C@H](Cc2ccccc2)NC(=O)[C@H](CCCNC(=N)N)NC(=O)[C@@H](N)CCC(N)=O)C(C)(C)SSCC[C@@H](C(=O)N[C@@H](CC(N)=O)C(=O)NCC(=O)N2CCC[C@H]2C(N)=O)NC(=O)[C@@H]2CCCN2C(=O)[C@H](Cc2ccc(O)cc2)NC1=O

IC50 [4]: 90 µM
B10: Peptide No. 58 (peptide)
peptide: QRFCTGHXGGLYPCNGP
modifications: Pen 4; 2-pyridylalanine 8; disulfide 4-14; C-terminal amide

Kd [6]: 0.74 µM | IC50 [7]: 3.4 µM
B11: Peptide No. 138 (peptide)
peptide: QRF[Pen]TG[His(1-Me)]FGGLYPCNGP-NH2
modifications: disulfide 4-14

Kd [6]: 0.84 µM | IC50 [7]: 1.6 µM
B12: Peptide No. 248 (peptide)
peptide: RFCTGXFGGLYPC
modifications: Pen 3; Thz 6; Sar 9; NMeL 10; disulfide 3-13; C-terminal amide

IC50 [4]: 3.7 µM
B13: Peptide No. 222 (peptide)
peptide: RF[Pen]TGH[Phe(3-Cl)]GGLYPC-NH2
modifications: disulfide 3-13; N-terminus assumed
SMILES: CC(C)C[C@@H]1NC(=O)CNC(=O)CNC(=O)[C@H](Cc2cccc(Cl)c2)NC(=O)[C@H](Cc2c[nH]cn2)NC(=O)CNC(=O)[C@H]([C@@H](C)O)NC(=O)[C@@H](NC(=O)[C@H](Cc2ccccc2)NC(=O)[C@@H](N)CCCNC(=N)N)C(C)(C)SSC[C@@H](C(N)=O)NC(=O)[C@@H]2CCCN2C(=O)[C@H](Cc2ccc(O)cc2)NC1=O

Kd [6]: 9.9 µM | IC50 [7]: > 100 µM
B14: Peptide No. 266 (peptide)
peptide: RF[Pen]TGAFG[Sar][NMeL]YPC-NH2
modifications: disulfide 3-13; N-terminus assumed
SMILES: CC(C)C[C@H]1C(=O)N[C@@H](Cc2ccc(O)cc2)C(=O)N2CCC[C@H]2C(=O)N[C@H](C(N)=O)CSSC(C)(C)[C@H](NC(=O)[C@H](Cc2ccccc2)NC(=O)[C@@H](N)CCCNC(=N)N)C(=O)N[C@@H]([C@@H](C)O)C(=O)NCC(=O)N[C@@H](C)C(=O)N[C@@H](Cc2ccccc2)C(=O)NCC(=O)N(C)CC(=O)N1C

IC50 [4]: 4 µM
B15: Peptide No. 221 (peptide)
peptide: RF[Pen]TGH[Phe(2-Cl)]GGLYPC-NH2
modifications: disulfide 3-13; N-terminus assumed
SMILES: CC(C)C[C@@H]1NC(=O)CNC(=O)CNC(=O)[C@H](Cc2ccccc2Cl)NC(=O)[C@H](Cc2c[nH]cn2)NC(=O)CNC(=O)[C@H]([C@@H](C)O)NC(=O)[C@@H](NC(=O)[C@H](Cc2ccccc2)NC(=O)[C@@H](N)CCCNC(=N)N)C(C)(C)SSC[C@@H](C(N)=O)NC(=O)[C@@H]2CCCN2C(=O)[C@H](Cc2ccc(O)cc2)NC1=O
